Assay results from patent publication US20240254206A1 (ROCKEFELLER UNIVERSITY, published 2024).
Residue numbers refer to the chain shown, from its start.

B1: 12A12 (antibody, V domains shown)
VH: SQQLVQSGTQVKKPGASVRISCQASGYSFTDYVLHWWRQAPGQGLEWMGWIKPVYGARNYARRFQGRINFDRDIYREIAFMDLSGLRSDDTALYFCARDGSGDDTSWHLDPWGQGTLVIVSA
VL: DIQMTQSPSSLSASVGDRVTITCQAGQGIGSSLQWYQQKPGKAPKLLVHGASNLHRGVPSRFSGSGFHTTFSLTISGLQRDDFATYFCAVLEFFGPGTKVEIKR
notes: also called 12A12HC; 12a12kc
B2: 3BNC55 (antibody, V domains shown)
VH: QVQLVQSGTAVKRPGASVRVSCQASGYTFTDYFIYWWRQAPGQGLEWLGWINPLTSQPSYPSRFQGRLTLTRDTFDEMLYMDLRGLRSDDTGIYFCARRHSDYCDFDIWGSGTQIIVSS
VL: DIQMTQSPSSLSASVGDKVTITCQTSAGYLNWYQQRRGRAPKLLMYDGSRLVTGVPSRFSGRRWGTQYNLTIGSLQPEDIATYYCQVYEFFGPGTRLDLKS
notes: also called 3BNC55HC; 3BNC55KC
B3: 3BNC66 (antibody, V domains shown)
VH: QVQLVQSGAALKKPGASLRISCQTYGYKFTDHLIYWWRQAPGQGLEWIGWIKPETGQPSYSYRFQGRVSLTRDTFEEIAFMDLRGLRSDDTAIYFCARRHTDYCVFDVWGSGSQIIVSS
VL: B2 VL with K18T, S26N, A27K, R50K, F59L, S101R
notes: also called 3BNC66HC; 3bnc66kc
B4: 3BNC156 (antibody, V domains shown)
VH: B3 VH with A79V, T101S, V105D, S111G, I115V
VL: B2 VL with K18T, S26N, A27K, R36K, R50K, F59L, S101R
notes: also called 3BNC156HC; 3bnc156kc
B5: 12A21 (antibody, V domains shown)
VH: SQHLVQSGTQVKKPGASVRVSCQASGYTFTNYILHWWRQAPGQGLEWMGLIKPVFGAVNYARQFQGRIQLTRDIYREIAFLDLSGLRSDDTAVYYCARDESGDDLKWHLHPWGQGTQVIVSP
VL: DIQMTQSPSSLSASVGDRVTINCQAGQGIGSSLNWYQKKPGRAPKLLVHGASNLQRGVPSRFSGSGFHTTFTLTISSLQPDDVATYFCAVFQWFGPGTKVDIKR
notes: also called 12A21HC; 12a21kc
B6: NIH45-46 (antibody, V domains shown)
VH: QVRLSQSGGQMKKPGESMRLSCRASGYEFLNCPINWIRLAPGRRPEWMGWLKPRGGAVNYARKFQGRVTMTRDVYSDTAFLELRSLTSDDTAVYFCTRGKYCTARDYYNWDFEH
VL: EIVLTQSPATLSLSPGETAIISCRTSQSGSLAWYQQRPGQAPRLVIYSGSTRAAGIPDRFSGSRWGADYNLSISNLESGDFGVYYCQQYEFFG
B7: 3BNC60 (antibody, V domains shown)
VH: QVHLSQSGAAVTKPGASVRVSCEASGYKISDHFIHWWRQAPGQGLQWVGWINPKTGQPNNPRQFQGRVSLTRQASWDFDTYSFYMDLKAVRSDDTAIYFCARQRSDFWDFDVWGSGTQVTVSSASTKG
VL: DIQMTQSPSSLSARVGDTVTITCQANGYLNWYQQRRGKAPKLLIYDGSKLERGVPARFSGRRWGQEYNLTINNLQPEDVATYFCQVYEFIVPGTRLDLKRTVAA
notes: also called 3BNC60HC; 3BNC60KC
B8: 3BNC117 (antibody, V domains shown)
VH: B7 VH with H3Q, S5L, K28N, S30R, H32Y, Q73H, Y81F, V90L, I97V, F107Y
VL: DIQMTQSPSSLSASVGDTVTITCQANGYLNWYQQRRGKAPKLLIYDGSKLERGVPSRFSGRRWGQEYNLTINNLQPEDIATYFCQVYEFVVPGTRLDLKRTVAAPSVFIFPPSD
notes: also called 3BNC117HC; 3bnc117kc
B9: 1NC9 (antibody, V domains shown)
VH: QVRLVQSGAQLKKPGASVTVSCEASGYNFVNYIINWVRQTPGRSFEWVGMIDPRRGRPWSAQKFQGRLTLTRDIDSEKLYMHLSGLRGDDTAVYYCARQDSDFHDGHGHTLRGMFDSWGQGSPVTVSS
VL: QVLSVSGTPGQRVIISCSGTSSNVGGNLVSWYQHLPGAAPRLLIHRDDQRPSGVPDRFSGSKSGNSASLVISGLRSDDEADYFCAAYDSTFSLPVFGGGTRLTVLS
notes: also called LSSNEC9HC; LSSNEC9LC
B10: 1B2530 (antibody, V domains shown)
VH: QVRLEQSGAAMRKPGASVTLSCQASGYNFVKYIIHWVRQKPGLGFEWVGMIDPYRGRPWSAHKFQGRLSLSRDTSMEILYMTLTSLKSDDTATYFCARAEAASDSHSRPIMFDHWGQGSRVTVSS
VL: QSALTQPPSASGAPGQRVTISCSGGPSNVGGNYVYWYRQFPGTAPTLLILRDDQRPSGVPDRFSASKSGNSASLAISGLRPDDEGFYFCATYDSDGSIRLFGGGTALTVLS
notes: also called LSSB2530HC; LSSB2530LC
B11: 8ANC195 (antibody, V domains shown)
VH: QIHLVQSGTEVKKPGSSVTVSCKAYGVNTFGLYAVNWVRQAPGQSLEYIGQIWRWKSSASHHFRGRVLISAVDLTGSSPPISSLEIKNLTSDDTAVYFCTTTSTYDKWSGLHHDGVMAFSSWGQGTLISVSA
VL: DIQMTQSPSTLAASIGGTVRVSCRASQSITGNWVAWYQQRPGKAPRLLIYRGAALLGGVPSRFSGSAAGTDFTLTIGNLQAEDFGTFYCQQYDTYPGTFGQGTKVEVKR
notes: also called 8ANC195HC; 8ANC195KC
B12: 8ANC131 (antibody, V domains shown)
VH: QGQLVQSGGGLKKPGTSVTISCLASEYTFNEFVIHWIRQAPGQGPLWLGLIKRSGRLMTAYNFQDRLRLRRDRSTGTVFMELRGLRPDDTAVYYCARDGLGEVAPDYRYGIDVWGQGSTVIVTA
VL: EIVLTQSPATLSLSPGERATLSCRASQGLNFVVWYQQKRGQAPRLLIHAPSGRAPGVPDRFSARGSGTEFSLVISSVEPDDFAIYYCQEYSSTPYNFGPGTRVDRKR
notes: also called 8ANC131HC; 8ANC131KC
B13: 8ANC134 (antibody, V domains shown)
VH: B12 VH with L11V, L46V, A60S, N62K, R68S, P87L, D106A, R108L, V113A, A124S
VL: B12 VL with R39G, A49G, S51T, G52D, I84L
notes: also called 8ANC134HC; 8ANC134KC

Target: 2CC-core
Test: SPR, antigen on chip, IgG injected

Binder | Kd [nM] | koff [s⁻¹] | kon [M⁻¹ s⁻¹]
B1 | 0.0269 | 1.7e-06 | 63300
B2 | 25.7 | – | –
B3 | 33.6 | 0.00133 | 39600
B4 | 81.2 | 0.00153 | 18800
B5 | 1.81 | 0.00033 | 182000
B6 | 4.4 | 0.000494 | 112000
B7 | 54.5 | 0.00164 | 30200
B8 | 36.8 | – | –
B9 | 4.61 | 0.000236 | 51100
B10 | 5.9 | 0.000402 | 68300
B11 | 54.7 | 0.00132 | 24100
B12 | 66.1 | 0.00323 | 48800
B13 | 46.1 | 0.000957 | 20800
